Assay results from the supplement of paper PMC12042874.
± gives the uncertainty stated by the source.

Test: amyloid nucleation score (Sup35N fusion, yeast selection) (log enrichment); library NNK1; higher = more nucleation; inactive = no reads after selection
How it was run: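 The nucleation score, computed with DiMSum, is the log enrichment of output over input reads, centred on the mode score of non-aggregating sequences. Sequences with under 100 input reads were dropped. Reads were generated by Illumina sequencing of plasmid inserts from psi-negative yeast with Sup35N fused to peptides of 20 random codons, induced with 100 μM copper sulfate for 24 hours and grown 7 days at 30°C on medium lacking adenine and uracil.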
For YVWAAIGVRLYSRHK, the amyloid nucleation score was -0.002 ± 1.4.
For YVWKMIHVYGMTLSDFTFKV, the amyloid nucleation score was 5.19 ± 0.053.
In the case of YVYLYGGSSQFVWYGLFSFA, the amyloid nucleation score is reported as 2.65 ± 0.14.
Work on YWAKGNCYVAFRLKWRYNCG yielded an amyloid nucleation score of 1.69 ± 0.64.
For YWCRSSLFRFMGLRYESRMY, the amyloid nucleation score was 0.359 ± 0.51.
YWLGLNMCVFSHPGCGLREI gave an amyloid nucleation score of 6.64 ± 0.047.
For YWNKITRFFCMLESNVTLHT, the amyloid nucleation score was 0.207 ± 1.4.
YWSLYSPFYAIHSVILTICQ showed an amyloid nucleation score of 0.496 ± 0.18.
Substance YWSQTRFYSMALSRSDSERT has an amyloid nucleation score of 0.135 ± 0.27.
For YWSVQG, the amyloid nucleation score was 0.647 ± 0.75.
With YWVCE the amyloid nucleation score was 0.332 ± 0.9.
Work on YWWKMLERQTRS yielded an amyloid nucleation score of 0.374 ± 0.9.
YYETLLNKDILDMWEYR gave an amyloid nucleation score of -0.393 ± 0.55.
Substance YYGFWICFNYVGTGVKISCA has an amyloid nucleation score of 3.38 ± 0.075.
YYIMYYAGSFIRGEMVHRLT showed an amyloid nucleation score of -0.581 ± 0.32.
For YYKCMATQVVGLLMSVWATY, the amyloid nucleation score was 1.06 ± 0.85.
In the case of YYLIFHFDYHLVIYLW, the amyloid nucleation score is reported as 0.707 ± 0.41.
In the case of YYLQLIYMHKNRMLISCVCC, the amyloid nucleation score is reported as “inactive”.
With YYNNC the amyloid nucleation score was 0.501 ± 0.39.
In the case of YYPNKLFEYSKWNHAAGRVR, the amyloid nucleation score is reported as 0.085 ± 0.64.
With YYQRTPSTDRSLWFTGWNVN the amyloid nucleation score was -0.424 ± 0.19.
YYTCSSETM gave an amyloid nucleation score of 0.811 ± 0.39.
In the case of YYVKISLGGSLNNLWKRDWW, the amyloid nucleation score is reported as 3.54 ± 0.1.
For YYYHVVWAQ, the amyloid nucleation score was “inactive”.
